Measurements as given in paper PMC6273018, “Effects of Flavonoids in Lysimachia clethroides Duby on the Activities of Cytochrome P450 CYP2E1 and CYP3A4 in Rat Liver Microsomes” (Molecules, 2016).

Substrate: O=[N+]([O-])c1ccc(O)cc1
Test: cells, lysate or membranes named
Details: other: Lineweaver-Burk plot; rat liver microsomes; pH 7.4
Experimental: The rats were fasted for 12 h with free access to water and then sacrificed by cervical dislocation. The liver was removed promptly and washed with ice-cold physiological saline solution to yellowish brown. […] The liver homogenate solution was centrifuged at 4 °C for 20 min at 12,000 r·min^−1 and supernatant fraction was reserved. The supernatant per millilitre was added with 0.1 mL CaCl2 (88 mM), gently shaken and kept at 0 to 4 °C for 5 min. The mixed solution was transferred to centrifuge tubes and centrifuged at 4 °C for 30 min at 15,000 r·min^−1. […] Protein concentration of the microsomes was determined by the method of Bradford. […]
The apparent Km (Michaelis constant) value was calculated according to the Michaelis-Menten equation and Lineweaver-Burk plot.
Group 1 (normal control) was added with phosphate buffer, group 2 (flavonoids reagent group) were added with flavonoids, and group 3 was given clomethiazole as positive control. […] The concentrations of probe substrate metabolites were calculated from the standard curves. The percentage of inhibition was calculated using the formula: %Inhibition = ((A0 − A1)/A0) × 100%, in which A0 was the concentration of probe substrate metabolite of group 1 and A1 was the concentration of probe substrate metabolite of group 2 and 3. The IC50 values were calculated based on the concentration-effect linear regression curve.

B1: CYP2E1 (Rattus norvegicus) (protein)
chain: MAVLGITIALLVWVATLLVISIWKQIYNSWNLPPGPFPLPILGNIFQLDLKDIPKSFTKLAKRFGPVFTLHLGSRRIVVLHGYKAVKEVLLNHKNEFSGRGDIPVFQEYKNKGIIFNNGPTWKDVRRFSLSILRDWGMGKQGNEARIQREAQFLVEELKKTKGQPFDPTFLIGCAPCNVIADILFNKRFDYNDKKCLRLMSLFNENFYLLSTPWIQLYNNFADYLRYLPGSHRKIMKNVSEIKQYTLEKAKEHLQSLDINCARDVTDCLLIEMEKEKHSQEPMYTMENVSVTLADLFFAGTETTSTTLRYGLLILMKYPEIEEKLHEEIDRVIGPSRVPAVRDRLDMPYMDAVVHEIQRFINLVPSNLPHEATRDTVFQGYVIPKGTVVIPTLDSLLYDSHEFPDPEKFKPEHFLNENGKFKYSDYFKAFSAGKRVCVGEGLARMELFLLLSAILQHFNLKSLVDPKDIDLSPVTVGFGSIPPQFKLCVIPRS
Km: 90.92 µM
